Source: paper PMC6908968 (Cell, 2019)
Substitutions are numbered along the chain they refer to.

B1: 5.6.c3013 (antibody, V domains shown)
VH: QVQLVQSGAEVKKPGASVKVSCKASGYTFTKYGISWMRQAPGQGLEWMGWISAYNGDTNYAQKLHGRLTMTTDTSTSTVYMELRSLRSDDTAIYYCARDLGELSSLKFYGMDVWGQGTTVTVSS
VL: DIQLTQSPSFLSASVGDRVTITCRASQGISSFLAWYQQKPGKAPKILVYGASTLQSGVPSRFSGSGSGTEFTLTISSLQPEDFATYYCQQVNTFPFTFGPGTQVDFK
B2: 5.6.c3014 (antibody, V domains shown)
VH: QVQLVESGGGVVQPGRSLRLSCAASGFSFNSYGMHWVRQAPGKGLEWVAIIWYDGSDKYYADSVKGRFTISRDNSKNTLSLQMNSLRVEDSAVYYCARDPGHPSDLYYYYGMDVWGQGTTVTVSS
VL: DIQMTQSPSSVSASVGDRVTITCRASQDISYWLAWYQQKPGKAPKLLIYSASSLQSGVPSRFSGSGSGTDFTLTISSLQPEDFATYYCQQTHTFPITFGQGTRLEIK
B3: 5.6.c3053 (antibody, V domains shown)
VH: QVQLVESGGGLVQPGRSLRLSCAASGFTFTNYGMQWVRQGPGKGLEWVALIWYDGYSKYYVDSVKGRFTISRDNSKNTLYLEMNSLRAEDTAVYYCARGNGYSSGWLDNWGQGTLVTVSS
VL: DIQMTQSPSTLSASVGDRVTITCRASQSIDNWLAWYQQKPGKAPKVLIYKASSLESGVPSRFSGSASGTEFTLTISSLQPDDFATYYCQHYNSYSGTFGQGTKVEIK
B4: 5.6.c3067 (antibody, V domains shown)
VH: EVQLVESGGGLVQPGGSLRLSCAASGFTFSNYWMTWVRQAPGKGLEWVGNIKEDGSEKYYVDSVKGRFTISRDNAKNSLYLQLNNLRAEDTAVYYCAREPAGFVFEGGFDYWGQGTLVTVSS
VL: DIQMTQSPSSVSASVGDRVTILCRASQYITTWLAWYQQKPGRAPKLLISAASTLQSGVPSRFSGSGSGTDFTLTISSLQPEDFATYYCQQAHSLPWTFGQGTKVEIK
B5: 5.6.c3021 (antibody, V domains shown)
VH: QLHLQESGPGLVKPSETLSLTCTVSGGSINHDYYWGWIRQPPGKGLEWIGTIYYSGNSYYNPSLKSRVTISVDTSKNQFSLKLSSVTAADTAVYYCARSEEDSVFGVLKGLAFDIWGQGTMVTVSS
VL: QSVLTQPPSVSGAPGQRVTISCTGSSSNIGAGYDVHWYQQPPGRAPKLLIYGNSNRASGVPDRFSGSKSGTSASLAITGLQAEDEADYYCQSYDSSLSGSVFGGGTKLTVL
B6: 5.6.c3054 (antibody, V domains shown)
VH: QVTLRESGPALVKPTQTLTLTCTFSGFSLSTSGMCVSWIRQPPGKALEWLALIDWNDGKYYTTSLKTRLTISKDTSKNQVVLTMTNMDPVDTATYYCARIFTSSDWFYDAFDLWGQGAMVTVSS
VL: QIVMTQSPATLSVSPGERATLSCRASQSVNNNLAWYQQKPGQAPRLLISGASTRATGIPARFSGSGFGTEFTLTISSLQSEDFAVYYCQQYNTWPPLTFGPGTRVDIK
B7: 5.6.c3027 (antibody, V domains shown)
VH: QVQLVESGGGVVQPGRSLRLSCAASGFSFNNYGMHWVRQAPGKGLEWVAHIYFDGNYKFYIDSVKGRFTISRDNAKYTLYLQMNSLRVEDTAVYYCARDVRDGDDIFSGYHYGMDVWGQGTTVTVSS
VL: DIQMTQSPSSVSASVGDRVSITCRASQGFTNWLAWYQQKPGKAPKLVIYAASSLQSGVPSRFSGSGSGTNFTLTISSLQPEDFATYYCQQANSFPLTFGGGTKVDVK
B8: 5.6.c2998 (antibody, V domains shown)
VH: EVQLVESGGGVVQPGGSLRLSCAASGFTFDDYAMHWVRQAPGKGLEWVSIITGDGGSRNYADSVKGRFTISRDNNKNSLYLQMNSLRSEDTALYYCAKEGGPDSSTFYYYGMDVWGQGTTVTVSS
VL: DIQMTQSPSSVSASVGDRVTITCRASQDVSSWLAWYRQKPGRAPELLIYAASSLQSGVPSRFSGSGSGTDFTLTISSLQPEDFASYYCLQANSIPWTFGQGTKVEIK
B9: 5.6.c3083 (antibody, V domains shown)
VH: QVQLVQSGVEVKKPGASVKLSCKASGYTFTTYGISWVRQAPGQGLEWMGWISAYDDNANYGQQFQGRVTMTTDTSTSTAYMELRSLRSDDTAVYFCARCGGEFIWGWLDPWGQGTLVTVSS
VL: QSALTQPASVSGSPGQSITISCTGTSSDIGGYNYVSWYQQHPGLAPKLMIYDVSYRPSGVSNRFSGSKSGNTASLTISGLQAEDEADYYCSSYTSSGTLVFGGGTKLTVL
B10: 5.6.c2972 (antibody, V domains shown)
VH: QVQLQESGPGLVKPSQTLSLTCAVSGGSIRSDDNYWSWIRQPPGKGLEWIGYIYHRGSTYYNPSLKNRVKISVDTSKNQFSLKLSSVTAADTAVYYCARDRIQVVPDGIVHYYYGMDVWGQGTTVTVSS
VL: QSVLTQPPSVSAAPGQKVTISCSGSSSNIGNNYVSWYQQLPGTAPKLLIYDNNKRPSGIPDRFSGSKSGTSATLGITGLQTGDEADYYCGTWDNNLSAWVFGGGTKLTVL
B11: 5.6.c2995 (antibody, V domains shown)
VH: QVQLVESGGGVVQPGRSLRLSCAASGFSFSTYGMYWVRQAPGKGLEWVGVIWYDGSEKYHADFVKGRFTMSRDNSKNTLYLQMNSLRVEDTAVYYCARDLRPSTNSWYGYYYNAMDVWGQGTTVTVSS
VL: B10 VL with K17R, S25N, Y33F, K54S, T77S, T91S, N94G, N95S, A98L
B12: 5.6.c3023 (antibody, V domains shown)
VH: QVQLVESGGGVVQPGRSLRLSCAASGFTFRTYGLHWVRQAPGKGLEWVAFISNDGSSKYNVDSVKGRFTISRDNPKNTLYLQMNSLRTEDTAVYYCAKDTISVAIYGHFDTWGQGTLVTVSS
VL: DVVMTQSPLSLPVTLGQPASISCRSSQSLVKSDGNTYLNWFQQRPGQSPRRLIYKVSTRDTGVPDRFSGSGSGTDFTLKISRVEAEDVAVYYCMQATHWPITFGGGTTVEIK
B13: 5.6.c3108 (antibody, V domains shown)
VH: QVQLVESGGGVVQPGRSLRLSCAASGFTFSNSDMHWVRQAPGKGLEWVALIYFDGSSQYYVDSVKGRFTISRDNSKNTLYLQMNSLRVEDTAVYYCAREAAIVGAIFYDGMDVWGQGTTVTVSS
VL: EIVMTQSPATLSVSPGEGATLSCRASQNVGFNVAWYQQRPGQAPRLLIYGASTRATGVPARFSGSGSGTEFTLTISSLQSEDFAVYYCQQCNNWPPLTFGGGTKVEIK
B14: 5.6.c3057 (antibody, V domains shown)
VH: QVQLVESGGGVVQSGRSLRLSCAASGFTLSSYGMHWVRQAPGKGLEWVATVSFDGNNEYYADSVKGRFTISRDKSKNTLYLQMNSLRPEDTAMYYCAKEPLPARGDFWSGHYSPPSYYYYGMDVWGQGTTVTVSS
VL: QTVVTQEPSFSVSPGGTVTLTCGLRSGSVSTNYYPSWYQQTPGQPPRTLIYNTNTRSFGVPDRFSGSILGNRAALTITGAQADDESDYYCLLYMDSGIWVFGGGTKLTVL

Target: T1, thermolysin-cleaved EBOV GP on Jurkat-GP cells (cleaved GP) (Zaire ebolavirus, Makona (GP1 core …, strain))
T1 chain 1: not shown
T1 chain 2: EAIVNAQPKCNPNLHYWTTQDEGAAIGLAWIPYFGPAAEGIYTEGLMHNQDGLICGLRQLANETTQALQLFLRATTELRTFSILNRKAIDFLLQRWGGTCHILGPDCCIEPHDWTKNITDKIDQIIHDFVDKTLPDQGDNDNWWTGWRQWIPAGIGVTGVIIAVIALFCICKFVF

Binder	binding result
B1	binds
B2	binds
B3	binds
B4	binds
B5	binds
B6	binds
B7	binds
B8	binds
B9	binds
B10	binds
B11	binds
B12	binds
B13	binds
B14	binds

The binders below were run against EBOV GP ectodomain residues 1-636 (GPec) (Zaire ebolavirus, strain  …, UniProt Q05320).

Binder	binding result
B1	binds
B2	binds
B3	binds
B4	binds
B5	binds
B6	binds
B7	binds
B8	binds
B9	binds
B10	binds
B11	binds
B12	binds
B13	binds
B14	binds
